Laboratory results taken from article PMC10397247.

Assays:
Experiment in all cases: two-hybrid library CCNG1;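 also: natural log of median RNA to DNA barcode read ratio; higher means stronger binding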
4H2473-bA = biological target: T1, 4H2473-bA
T1 chain: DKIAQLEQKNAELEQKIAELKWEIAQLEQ

4H477-bA = biological target: T2, 4H477-bA
T2 chain: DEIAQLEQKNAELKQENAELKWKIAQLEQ

4H3057-bA = biological target: T3, 4H3057-bA
T3 chain: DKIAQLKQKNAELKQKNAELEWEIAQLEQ

4H492-bA = biological target: T4, 4H492-bA
T4 chain: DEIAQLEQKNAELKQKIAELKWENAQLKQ

4H2717-bA = biological target: T5, 4H2717-bA
T5 chain: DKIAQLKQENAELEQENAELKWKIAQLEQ

4H741-bA = biological target: T6, 4H741-bA
T6 chain: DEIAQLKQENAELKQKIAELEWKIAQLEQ

4H967-bA = biological target: T7, 4H967-bA
T7 chain: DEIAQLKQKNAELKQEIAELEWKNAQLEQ

4H3277-bA = biological target: T8, 4H3277-bA
T8 chain: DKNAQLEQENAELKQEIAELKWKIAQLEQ

4H2588-bA = biological target: T9, 4H2588-bA
T9 chain: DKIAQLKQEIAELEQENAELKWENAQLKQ

4H2692-bA = biological target: T10, 4H2692-bA
T10 chain: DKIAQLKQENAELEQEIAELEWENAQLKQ

4H348-bA = biological target: T11, 4H348-bA
T11 chain: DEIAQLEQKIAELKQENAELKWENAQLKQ

4H2915-bA = biological target: T12, 4H2915-bA
T12 chain: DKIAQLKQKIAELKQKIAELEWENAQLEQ

4H2839-bA = biological target: T13, 4H2839-bA
T13 chain: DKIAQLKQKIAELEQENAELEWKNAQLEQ

4H2438-bA = biological target: T14, 4H2438-bA
T14 chain: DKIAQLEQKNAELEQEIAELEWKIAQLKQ

4H40-bA = biological target: T15, 4H40-bA
T15 chain: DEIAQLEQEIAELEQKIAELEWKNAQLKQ

4H319-bA = biological target: T16, 4H319-bA
T16 chain: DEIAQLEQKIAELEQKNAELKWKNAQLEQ

4H2503-bA = biological target: T17, 4H2503-bA
T17 chain: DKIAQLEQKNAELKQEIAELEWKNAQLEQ

4H3907-bA = biological target: T18, 4H3907-bA
T18 chain: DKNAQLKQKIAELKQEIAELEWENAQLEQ

4H3961-bA = biological target: T19, 4H3961-bA
T19 chain: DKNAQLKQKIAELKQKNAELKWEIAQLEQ

4H363-bA = biological target: T20, 4H363-bA
T20 chain: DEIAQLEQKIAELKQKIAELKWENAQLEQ

4H470-bA = biological target: T21, 4H470-bA
T21 chain: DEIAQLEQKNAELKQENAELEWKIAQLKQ

4H344-bA = biological target: T22, 4H344-bA
T22 chain: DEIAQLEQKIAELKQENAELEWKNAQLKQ

## DKIAQLEQKNAELEQEIAELEWKIAQLKQ [4H2438-bA]
4H2473-bA
  interaction score: 1.36
4H477-bA
  interaction score: -0.278
4H3057-bA
  interaction score: 2.39
4H492-bA
  interaction score: 1.59
4H2717-bA
  interaction score: -0.288
4H741-bA
  interaction score: -0.215
4H967-bA
  interaction score: -0.568
4H3277-bA
  interaction score: -1.45
4H2588-bA
  interaction score: -1.29
4H2692-bA
  interaction score: 0.00488
4H348-bA
  interaction score: 0.0426
4H2915-bA
  interaction score: 1.77
4H2839-bA
  interaction score: 0.364
4H2438-bA
  interaction score: 1.74
4H40-bA
  interaction score: -0.83
4H319-bA
  interaction score: -0.948
4H2503-bA
  interaction score: 0.927

## DEIAQLEQKIAELKQENAELEWKNAQLKQ [4H344-bA]
4H3907-bA
  interaction score: 0.155
4H3961-bA
  interaction score: 1.48
4H363-bA
  interaction score: -0.443
4H470-bA
  interaction score: 0.691
4H344-bA
  interaction score: -0.268
